Data on three molecules can be found in patent publication US20240084003A1 (SIMCERE ZAIMING PHARMACEUTICAL, published 2024).

The EC50 (read off the curve) is the concentration that produces a half-maximal response.

The target in assay [1] is T1, human CD22-ECD-His protein (human, UniProt P20273 20-687).
T1 construct: Made in house in HEK293E; also called hCD22-ECD-His; recombinant human CD22-ECD His protein; not shown: His tag
T1 sequence: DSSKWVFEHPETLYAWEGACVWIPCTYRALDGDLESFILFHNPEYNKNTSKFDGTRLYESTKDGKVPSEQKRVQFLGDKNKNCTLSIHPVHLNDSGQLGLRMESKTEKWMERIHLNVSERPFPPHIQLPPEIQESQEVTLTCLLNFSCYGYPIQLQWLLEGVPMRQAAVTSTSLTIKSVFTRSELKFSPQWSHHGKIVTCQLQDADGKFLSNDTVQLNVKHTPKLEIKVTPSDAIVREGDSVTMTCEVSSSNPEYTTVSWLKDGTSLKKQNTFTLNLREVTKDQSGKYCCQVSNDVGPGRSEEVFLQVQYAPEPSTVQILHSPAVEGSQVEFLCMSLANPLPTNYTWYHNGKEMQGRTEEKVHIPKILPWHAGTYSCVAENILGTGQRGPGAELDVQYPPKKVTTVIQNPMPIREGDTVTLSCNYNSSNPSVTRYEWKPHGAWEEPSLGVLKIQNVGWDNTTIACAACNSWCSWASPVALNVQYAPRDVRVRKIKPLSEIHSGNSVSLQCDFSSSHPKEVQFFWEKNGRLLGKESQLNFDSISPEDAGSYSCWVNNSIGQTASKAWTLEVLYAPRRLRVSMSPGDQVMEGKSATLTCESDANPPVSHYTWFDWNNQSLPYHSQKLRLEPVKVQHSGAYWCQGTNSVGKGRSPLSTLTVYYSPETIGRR
The experiment in a line: ELISA, Ab 0.01 nM. As to the method:
(§1) In order to detect the binding activity of CD22 human-murine chimeric antibodies to CD22 protein, the purified human CD22-ECD-His protein obtained in Example 2 was diluted with PBS to a final concentration of 2 μg/mL, and then added to 96-well ELISA plate at 100 μl/well. The plate was sealed with plastic film and incubated overnight at 4° C., the plate was washed 2 times with PBS the next day, and then a blocking solution [PBS+2% (w/w) BSA] was added for blocking at room temperature for 2 hours. […] After incubation at 37° C. for 2 hours, the plate was washed 3 times with PBS. HRP (horseradish peroxidase)-labeled secondary antibody (purchased from Sigma, catalog number: A0170) was added, and incubated at 37° C. for 2 hours, and the plate was washed 5 times with PBS. TMB substrate was added at 50 μl/well, and incubated at room temperature for 30 minutes, then a stop solution (1.0 N HCl) was added at 50 μl/well.
(In general: ELISA stands for enzyme-linked immunosorbent assay.)

Assay [2] concerns the target T1, human CD22-ECD-His protein. The experiment in a line: ELISA, Ab 0.10 nM. As to the method: as §1
For assay [3], the target named is T1, human CD22-ECD-His protein. As to the kind of experiment: ELISA, Ab 0.001 nM. The protocol: as §1
The target of assay [4] is T1, human CD22-ECD-His protein. As to the kind of experiment: ELISA, Ab 10.00 nM. As to the method: as §1
For assay [5], the target named is T1, human CD22-ECD-His protein. As to the kind of experiment: ELISA, Ab 0.0001 nM. As to the method: as §1
Assay [6] concerns the target T1, human CD22-ECD-His protein. The experiment in a line: ELISA, Ab 100.00 nM. As to the method: as §1
For assay [7], the target named is T1, human CD22-ECD-His protein. As to the kind of experiment: ELISA, Ab 0.00001 nM. As to the method:
as §1

Assay [8] has as its target T1, human CD22-ECD-His protein. As to the kind of experiment: ELISA, human CD22-ECD-His coated. The protocol:
as §1

Assay [9] concerns the target T2, murine CD22 protein (ACROBiosystems, SI2-M52Ha) (murine, UniProt P35329 22-708).
T2 construct: extracellular domain; also called murine CD22-ECD; murine CD22-ECD-His
T2 sequence (looked up): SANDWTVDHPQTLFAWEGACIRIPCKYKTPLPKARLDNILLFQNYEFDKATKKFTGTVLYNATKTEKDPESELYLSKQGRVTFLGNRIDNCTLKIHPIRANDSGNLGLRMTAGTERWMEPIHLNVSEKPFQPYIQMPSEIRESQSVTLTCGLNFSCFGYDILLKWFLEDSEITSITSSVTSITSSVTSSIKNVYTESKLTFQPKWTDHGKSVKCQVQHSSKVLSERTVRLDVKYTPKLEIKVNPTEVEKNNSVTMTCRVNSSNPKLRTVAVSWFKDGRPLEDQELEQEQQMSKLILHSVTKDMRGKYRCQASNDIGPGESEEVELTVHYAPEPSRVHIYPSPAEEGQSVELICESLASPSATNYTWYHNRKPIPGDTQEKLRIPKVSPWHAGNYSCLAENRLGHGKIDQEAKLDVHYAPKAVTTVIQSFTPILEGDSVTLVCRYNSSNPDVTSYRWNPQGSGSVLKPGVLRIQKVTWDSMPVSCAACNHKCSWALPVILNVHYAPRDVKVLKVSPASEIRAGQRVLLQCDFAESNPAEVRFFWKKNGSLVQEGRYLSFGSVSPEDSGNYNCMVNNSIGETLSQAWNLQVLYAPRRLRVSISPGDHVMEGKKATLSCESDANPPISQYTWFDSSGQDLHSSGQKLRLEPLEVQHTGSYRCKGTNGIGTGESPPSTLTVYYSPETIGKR
As to the kind of experiment: ELISA, murine CD22-ECD-His coated. The protocol:
as §1
In order to detect the species cross-binding activity of the chimeric antibodies, an ELISA plate was coated with commercial murine CD22 protein (ACROBiosystems, catalog number: SI2-M52Ha) and monkey CD22 protein (ACROBiosystems, catalog number: SI2-R52Ha), respectively, and the ELISA detection was performed according to the method in Example 5.1.

For the next assay, the target named is T3, human CD22 domain5-7-His (human, UniProt P20273 414-687).
T3 construct: also called hCD22 domain5-7-His; not shown: His tag
T3 sequence: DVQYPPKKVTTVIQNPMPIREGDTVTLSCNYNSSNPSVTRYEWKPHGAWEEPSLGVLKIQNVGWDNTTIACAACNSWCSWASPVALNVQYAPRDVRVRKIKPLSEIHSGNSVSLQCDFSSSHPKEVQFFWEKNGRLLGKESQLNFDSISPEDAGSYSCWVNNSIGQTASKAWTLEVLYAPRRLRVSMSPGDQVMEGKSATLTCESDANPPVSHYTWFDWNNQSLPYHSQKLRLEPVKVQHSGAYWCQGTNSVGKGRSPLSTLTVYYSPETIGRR
As to the kind of experiment: ELISA, human CD22 domain5-7-His coated.

B1: F1.161.7 (antibody, human IgG1, kappa, V domains shown)
VH: QVQLQQPGAELVKPGASVKMSCKASGYTFTSYWISWVKQRPGQGLEWIGDIYPGTGSSNYNEKFKSKATLTVDTSSSTAYMQLSSLTSEDSAVYYCARLKFEGIGYWGQGTTLTVSS
VL: QIVLTQSPAIMSASLGEEITLTCSASSSVSYMHWFQQKSGTSPKLLIYSISNLASGVPSRFSGSGSGTFYSLTISSVEAEDAADYYCHQWSSYPWTFGGGTKLEIKR
notes: Human-murine chimeric IgG1, kappa
Take B1: the OD450 is 2.34 OD450 in [1]; 2.61 OD450 in [2]; 1.22 OD450 in assay [3]; 2.63 OD450 in [4]; 0.43 OD450 in assay [5]; 2.97 OD450 in [6]. The same molecule came in with an OD450 in assay [7] of 0.25 OD450. For the same molecule, the “EC50 (read off the curve)” value in assay [8] is around 0.02 nM. The binding result (in assay [9]; with human CD22 domain5-7-His) was “no binding (tested: 100 nM)” in each case.

B2: F2.121.9 (antibody, human IgG1, lambda, V domains shown)
VH: EVQLVESGGGLVKPGGSLKLSCAASGFTFSDYVMSWIRQTPEKRLEWVATISDAGSYTFYPDNLKGRFTISRDNAKNNLYLQMNHLTSEDTAFYYCAIIYFGNYGGYWGQGTLVTVSV
VL: QAVVTQESALTTSPGGTVVLTCRSNTGAVTTSNYANWVQEKPDHLFTGLIGGTSNRAPGVPVRFSGSLIGDKAALTITGAQTEDDAMYFCALWYSTHWVFGGGTKLTVLG
notes: Human-murine chimeric IgG1, lambda
As to B2, the OD450 in [1] was found to be 1.6 OD450; in assay [2], 1.84 OD450; in assay [3], 0.69 OD450; in [4], 1.92 OD450; in [5], 0.33 OD450; in assay [6] it was 2.11 OD450. In [7], this molecule gave an OD450 of 0.23 OD450. The “EC50 (read off the curve)” value in assay [8] was around 0.03 nM. Also, the binding result (in assay [9]; with human CD22 domain5-7-His) was “no binding (tested: 100 nM)” in each case.

B3: F1.62.10 (antibody, human IgG1, kappa, V domains shown)
VH: QVQLQQSGPELVKPGASVKISCKASGYEFSSIWMNWVKQRPGEGLEWIGRIFPGDGEINYNEKFKGKATLTADRSSTTAYMQLSSLTSEDSAVYFCAGWRIYYGTYGAMDYWGQGTSVTVSS
VL: DIQMTQITSSLSASLGDRVTISCRASQDIGNYLNWYQQKPDGTVKLLIYYTSRLHSGVPSRFSGSGSRTDYSLTISNLQQEDIATYFCQQGNTLPWTFGGGTKLEIKR
notes: as for B1
Take B3: the OD450 in assay [1] was 2.16 OD450; in assay [2], 2.79 OD450; in assay [3], 1.07 OD450; in assay [4], 2.67 OD450; in assay [5], 0.37 OD450; in assay [6], 2.93 OD450. The molecule further returned an OD450 in assay [7] of 0.24 OD450. In addition, the “EC50 (read off the curve)” value in assay [8] was around 0.02 nM. Also, the binding result (in assay [9]; with human CD22 domain5-7-His) was “no binding (tested: 100 nM)” throughout.
